Test results published in patent US12324447B2, “Animal feed compositions and uses thereof” (priority 2015, dated 2025).
Entries after “also recorded” stand apart in the source; their conditions may differ. Read-outs that look alike come from different tables or passages of the source. Marks after values point to notes of the source that are not given here.

Legend:
[1] = In vivo piglet trial (growth performance); design: species or system weaned piglets (Large-White x Redon); settings: for ADFI (g/d), Mean / ADWG (g/d), Mean / FCR, Mean: SEQ ID NO: 257 50 mg/kg feed, VevoVital 5000 mg/kg feed; for ADFI, % relative NC / ADWG, % relative NC / FCR, % relative NC: relative to negative control
[2] = test system: Clostridium perfringens DSM756; format: cell-based; settings: for Diameter of clearing zone (mm): lysozymes 100 μg/ml, Bacitracin zinc salt 50 μg/ml
[3] = test system: M. lysodeikticus substrate; experiment: Temperature stability: residual activity by OD drop after heat treatment; settings: for Residual activity (%): OD drop pH 6
[4] = test system: Micrococcus lysodeikticus ATTC No. 4698; experiment: Lysozyme activity turbidity assay (optical density drop at 540 nm)
[5] = Thermostability by Differential Scanning Calorimetry (DSC); format: physicochemical; settings: 50 mM Na-acetate, DSC 200 K/hour
[6] = In vivo broiler trial (growth performance)
[7] = test system: Exiguobacterium undea (DSM14481); experiment: Lysozyme activity turbidity assay (optical density drop at 540 nm); format: biochemical, Exiguobacterium undae
[8] = Finisher (d 36-42), SEQ ID NO: 257 25 mg/kg feed, Avilamycin 10 mg/kg
[9] = Finisher (d 36-42), relative to unsupplemented control
[10] = Grower (d 22-36), SEQ ID NO: 257 25 mg/kg feed, Avilamycin 10 mg/kg
[11] = Grower (d 22-36), relative to unsupplemented control
[12] = Starter (d 1-22), SEQ ID NO: 257 25 mg/kg feed, Avilamycin 10 mg/kg
[13] = Starter (d 1-22), relative to unsupplemented control
[14] = Whole period (day 1 to day 42), SEQ ID NO: 257 25 mg/kg feed, Avilamycin 10 mg/kg
[15] = Whole period, relative to unsupplemented control

B1: SEQ ID NO: 257: mature GH24 lysozyme from Trichophaea saccata, comprising a GH24 domain and a lysozyme enhancing domain (LED) (protein, listed as Trichophaea saccata)
chain: YPVKTDLHCRSSPSTSASIVRTYSSGTEVQIQCQTTGTSVQGSNVWDKTQHGCYVADYYVKTGHSGIFTTKCGSSSGGGSCKPPPINAATVALIKEFEGFVPKPAPDPIGLPTVGYGHLCKTKGCKEVPYSFPLTQETATKLLQSDIKTFTSCVSNYVKDSVKLNDNQYGALASWAFNVGCGNVQTSSLIKRLNAGENPNTVAAQELPKWKYAGGKVMPGLVRRRNAEVALFKKPSSVQAHPPKC
modifications: mat_peptide (1)..(245)
ADFI (g/d), Mean ([1]; day 0-14): 333 g/day | ADWG (g/d), Mean ([1]; day 0-14): 265 g/day | FCR, Mean ([1]; day 0-14): 1.272^b | ADFI, % relative NC ([1]; day 0-14): 92.5% | ADWG, % relative NC ([1]; day 0-14): 91.4% | FCR, % relative NC ([1]; day 0-14): 102.6% | ADFI (g/d), Mean ([1]; day 0-42): 740^b g/d | ADWG (g/d), Mean ([1]; day 0-42): 538 g/day | FCR, Mean ([1]; day 0-42): 1.379^a | ADFI, % relative NC ([1]; day 0-42): 100.8% | ADWG, % relative NC ([1]; day 0-42): 107.8% | FCR, % relative NC ([1]; day 0-42): 92.9% | ADFI (g/d), Mean ([1]; day 14-42): 944^c g/d | ADWG (g/d), Mean ([1]; day 14-42): 674 g/day | FCR, Mean ([1]; day 14-42): 1.404^a | ADFI, % relative NC ([1]; day 14-42): 101.5% | ADWG, % relative NC ([1]; day 14-42): 111.8% | FCR, % relative NC ([1]; day 14-42): 90.9% | Improvement on FCR compared to the negative control ([1]; overall period (day 0 to day 42), lysozyme 50 mg/kg, VevoVital 5000 mg/kg): 7.1% | Improvement of ADWG compared to NC ([1]; starter period (days 14-42)): 11.8% | Improvement to FCR compared to NC ([1]; starter period, from day 15 to day 42, SEQ ID NO: 257 50 mg/kg, VevoVital (PC)): 9.1% | Improvement of ADWG compared to NC ([1]; whole period (day 0 to day 42)): 7.8% | Diameter of clearing zone (mm) ([2]; Experiment 1, 1/2 MHB pH 6): 11 mm | Diameter of clearing zone (mm) ([2]; Experiment 1, 1/10 MHB pH 7): 9 mm | Diameter of clearing zone (mm) ([2]; Experiment 2, 1/10 MHB pH 7): 8 mm | Antimicrobial activity against Clostridium perfringens (in words) ([2]; RDA, tested conditions (1/10 MHB pH 7 and 1/2 MHB pH 6)): significant activity; also recorded: showed antimicrobial activity | Time for which the lysozyme is stable ([3]; at temperatures as high as 99° C.): at least 90 seconds | Residual activity (%) ([3]; heat treatment 30 sec at 60 °C): 93% | Residual activity (%) ([3]; heat treatment 30 sec at 65 °C): 99% | Residual activity (%) ([3]; heat treatment 30 sec at 70 °C): 94% | Residual activity (%) ([3]; heat treatment 30 sec at 75 °C): 101% | Residual activity (%) ([3]; heat treatment 30 sec at 80 °C): 94% | Residual activity (%) ([3]; heat treatment 30 sec at 85 °C): 98% | Residual activity (%) ([3]; heat treatment 30 sec at 90 °C): 94% | Residual activity (%) ([3]; heat treatment 30 sec at 95 °C): 98% | Residual activity (%) ([3]; heat treatment 30 sec at 99 °C): 93% | Residual activity (%) ([3]; heat treatment 60 sec at 60 °C): 99% | Residual activity (%) ([3]; heat treatment 60 sec at 65 °C): 97% | Residual activity (%) ([3]; heat treatment 60 sec at 70 °C): 93% | Residual activity (%) ([3]; heat treatment 60 sec at 75 °C): 96% | Residual activity (%) ([3]; heat treatment 60 sec at 80 °C): 98% | Residual activity (%) ([3]; heat treatment 60 sec at 85 °C): 94% | Residual activity (%) ([3]; heat treatment 60 sec at 90 °C): 99% | Residual activity (%) ([3]; heat treatment 60 sec at 95 °C): 94% | Residual activity (%) ([3]; heat treatment 60 sec at 99 °C): 97% | Residual activity (%) ([3]; heat treatment 90 sec at 60 °C): 96% | Residual activity (%) ([3]; heat treatment 90 sec at 65 °C): 99% | Residual activity (%) ([3]; heat treatment 90 sec at 70 °C): 98% | Residual activity (%) ([3]; heat treatment 90 sec at 75 °C): 98% | Residual activity (%) ([3]; heat treatment 90 sec at 80 °C): 97% | Residual activity (%) ([3]; heat treatment 90 sec at 85 °C): 100% | Residual activity (%) ([3]; heat treatment 90 sec at 90 °C): 97% | Residual activity (%) ([3]; heat treatment 90 sec at 95 °C): 102% | Residual activity (%) ([3]; heat treatment 90 sec at 99 °C): 89% | Lysozyme activity against Micrococcus lysodeikticus (in words) ([4]; OD drop assay): good activity | Lysozyme Activity against Micrococcus lysodeikticus as measured by Optical Density Drop ([4]; assay pH 6): ++ | Denaturation Temperature Td (° C.) ([5]; pH 4.5): 70.0 °C | Denaturation Temperature Td (° C.) ([5]; pH 5.5): 70.8 °C | Denaturation Temperature Td (° C.) ([5]; pH 6.5): 69.7 °C | FCR [6, 8]: 1.919 | Feed intake (g/b) [6, 8]: 1524 g/b | Weight gain (g/b) [6, 8]: 800 g/b | FCR, Relative to C (%) [6, 9]: 97.9% | Feed intake, Relative to C (%) [6, 9]: 102.5% | Weight gain, Relative to C (%) [6, 9]: 105.1% | FCR [6, 10]: 1.714 | Feed intake (g/b) [6, 10]: 2336 g/b | Weight gain (g/b) [6, 10]: 1364 g/b | FCR, Relative to C (%) [6, 11]: 99.5% | Feed intake, Relative to C (%) [6, 11]: 102.2% | Weight gain, Relative to C (%) [6, 11]: 102.7% | FCR [6, 12]: 1.414 | Feed intake (g/b) [6, 12]: 1603 g/b | Weight gain (g/b) [6, 12]: 1133 g/b | FCR, Relative to C (%) [6, 13]: 98.1% | Feed intake, Relative to C (%) [6, 13]: 101.6% | Weight gain, Relative to C (%) [6, 13]: 103.4% | EPEF [6, 14]: 425 | FCR [6, 14]: 1.657 | Feed intake (g/b) [6, 14]: 5450 g/b | Motality [6, 14]: 10.0 | Weight gain (g/b) [6, 14]: 3290 g/b | EPEF, Relative to C (%) [6, 15]: 101.7% | FCR, Relative to C (%) [6, 15]: 98.6% | Feed intake, Relative to C (%) [6, 15]: 101.9% | Weight gain, Relative to C (%) [6, 15]: 103.3% | EPEF improvement compared to NC diet ([6]; whole period, GH24 lysozyme 25 mg/kg): 1.7% | FCR improvement compared to NC diet ([6]; whole period, GH24 lysozyme 25 mg/kg, Avilamycin 10 mg/kg): 1.4% | Lysozyme activity against Exiguobacterium undea (in words) ([7]; OD drop assay): good activity | Lysozyme Activity against Exiguobacterium undae as measured by Optical Density Drop ([7]; assay pH 6): ++
